Results from article PMC3748285 (Cell reports, 2013).

How the values were obtained:
[1] = molecular target: LTag131-627 V350E/P417D (Simian virus 40); assay: SEC + other: SDS-PAGE gel quantification
[2] = molecular target: the molecule itself; assay: SEC
[3] = molecular target: the molecule itself; assay: crystal structure
[4] = molecular target: SV40 large T antigen LTag131-627 (Simian virus 40, UniProt P03070 131-627); assay: X-ray crystallography

LTag131-627 L286Dt/R567E (domain or fragment)
stoichiometry N [1]: 1 mut1:mut2

B1: SV40 large tumor antigen LTag131-627 (wild type) (domain or fragment)
chain: KVEDPKDFPSELLSFLSHAVFSNRTLACFAIYTTKEKAALLYKKIMEKYSVTFISRHNSYNHNILFFLTPHRHRVSAINNYAQKLCTFSFLICKGVNKEYLMYSALTRDPFSVIEESLPGGLKEHDFNPEEAEETKQVSWKLVTEYAMETKCDDVLLLLGMYLEFQYSFEMCLKCIKKEQPSHYKYHEKHYANAAIFADSKNQKTICQQAVDTVLAKKRVDSLQLTREQMLTNRFNDLLDRMDIMFGSTGSADIEEWMAGVAWLHCLLPKMDSVVYDFLKCMVYNIPKKRYWLFKGPIDSGKTTLAAALLELCGGKALNVNLPLDRLNFELGVAIDQFLVVFEDVKGTGGESRDLPSGQGINNLDNLRDYLDGSVKVNLEKKHLNKRTQIFPPGIVTMNEYSVPKTLQARFVKQIDFRPKDYLKHCLERSEFLLEKRIIQSGIALLLMLIWYRPVAEFAQSIQSRIVEWKERLDKEFSLSVYQKMKFNVAMGIGVLD
stoichiometry N [2]: 6
stoichiometry N [3]: 2

B2: EP-half ori 32 bp (dsDNA)
DNA 1: ACTACTTCTGGAATAGCTCAGAGGCCGAGGCG
DNA 2: CGCCTCGGCCTCTGAGCTATTCCAGAAGTAGT
binding result [4]: binds
